From ChEMBL document CHEMBL1156528, “Acetyl-lysine analog peptides as mechanistic probes of protein deacetylases” (J Biol Chem, 2007)

Experiments:
[1] = substrate: C[C@H](NC(=O)[C@H](CCCCNC(N)=O)NC(=O)CNC(=O)CNC(=O)[C@@H](NC(=O)[C@H](CO)NC(=O)[C@@H](N)CCCCN)[C@@H](C)O)C(=O)N1CCC[C@H]1C(=O)N[C@@H](CCCNC(=N)N)C(=O)N[C@@H](CCCCN)C(=O)N[C@@H](CCC(N)=O)C(=O)O; assay: (§1) Activity of Saccharomyces cerevisiae Hst2
[2] = substrate: CC(=O)NCCCC[C@H](NC(=O)CNC(=O)CNC(=O)[C@@H](NC(=O)[C@H](CO)NC(=O)[C@@H](N)CCCCN)[C@@H](C)O)C(=O)N[C@@H](C)C(=O)N1CCC[C@H]1C(=O)N[C@@H](CCCNC(=N)N)C(=O)N[C@@H](CCCCN)C(=O)N[C@@H](CCC(N)=O)C(=O)O; assay: as §1

B1: NAD-dependent protein deacetylase HST2 (Saccharomyces cerevisiae S288c), P53686 (protein)
chain: MSVSTASTEMSVRKIAAHMKSNPNAKVIFMVGAGISTSCGIPDFRSPGTGLYHNLARLKLPYPEAVFDVDFFQSDPLPFYTLAKELYPGNFRPSKFHYLLKLFQDKDVLKRVYTQNIDTLERQAGVKDDLIIEAHGSFAHCHCIGCGKVYPPQVFKSKLAEHPIKDFVKCDVCGELVKPAIVFFGEDLPDSFSETWLNDSEWLREKITTSGKHPQQPLVIVVGTSLAVYPFASLPEEIPRKVKRVLCNLETVGDFKANKRPTDLIVHQYSDEFAEQLVEELGWQEDFEKILTAQGGMGDNSKEQLLEIVHDLENLSLDQSEHESADKKDKKLQRLNGHDSDEDGASNSSSSQKAAKE
Vmax [1]: 1.3 s⁻¹ | kcat [1]: 1.2 ×10⁻² /s | kcat [2]: 0.2 s⁻¹
